Reference: patent US20200255529A1 (PIONYR IMMUNOTHERAPEUTICS, published 2020)

T1: cynomolgus TREM1 on cells (cynomolgus, UniProt A0A2K5VHG8 21-233)
T1 construct: whole, on cells; Used for HEK293 cells over-expressing cynomolgus TREM1 and for primary cynomolgus monocytes; also called cynoTREM1; Cyno TREM1 cells
T1 sequence: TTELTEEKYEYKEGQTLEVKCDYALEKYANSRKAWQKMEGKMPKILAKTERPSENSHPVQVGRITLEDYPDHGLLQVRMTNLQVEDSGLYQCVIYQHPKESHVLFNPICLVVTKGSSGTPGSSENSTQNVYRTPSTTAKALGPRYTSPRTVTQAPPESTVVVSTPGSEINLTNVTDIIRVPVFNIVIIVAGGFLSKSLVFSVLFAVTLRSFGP

T2: Chimeric cynomolgus TREM1-mIgG Fc (cynomolgus, UniProt A0A2K5VHG8 21-204)
T2 construct: not shown: mouse IgG Fc
T2 sequence: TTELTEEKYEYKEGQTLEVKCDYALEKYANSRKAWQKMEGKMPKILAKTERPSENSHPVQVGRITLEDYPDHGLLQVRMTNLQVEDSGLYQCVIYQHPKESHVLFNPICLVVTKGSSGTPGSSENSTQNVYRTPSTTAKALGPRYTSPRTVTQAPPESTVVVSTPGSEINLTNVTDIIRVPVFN

T3: Fc-tagged recombinant mouse TREM1 (R&D systems #1187-TR) (mouse, UniProt Q9JKE2 21-202)
T3 construct: Bought reagent; not shown: Fc tag
T3 sequence: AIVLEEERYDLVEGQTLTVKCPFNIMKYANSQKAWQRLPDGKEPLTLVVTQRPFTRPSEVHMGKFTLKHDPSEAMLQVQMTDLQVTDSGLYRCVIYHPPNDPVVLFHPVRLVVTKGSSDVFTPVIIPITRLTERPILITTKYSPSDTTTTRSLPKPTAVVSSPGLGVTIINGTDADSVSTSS

B1: PI-4026-5-M100E (fucosylated) (antibody, human IgG1, kappa)
heavy: not shown
light: DIQLTQSPSSLSASVGDRVTITCSASSSVSYMHWYQQKPGKAPKLLLYTTSNLASGVPSRFSGSGSGTDYTLTISSLQPEDFATYYCHQWSGYPTFGQGTKLEIKRTVAAPSVFIFPPSDEQLKSGTASVVCLLNNFYPREAKVQWKVDNALQSGNSQESVTEQDSKDSTYSLSSTLTLSKADYEKHKVYACEVTHQGLSSPVTKSFNRGEC
B2: PI-4026-5-M100I (fucosylated) (antibody, human IgG1, kappa)
heavy: not shown
light: DIQLTQSPSSLSASVGDRVTITCSASSSVSYMHWYQQKPGKAPKLLLYTTSNLASGVPSRFSGSGSGTDYTLTISSLQPEDFATYYCHQWSGYPTFGQGTKLEIKRTVAAPSVFIFPPSDEQLKSGTASVVCLLNNFYPREAKVQWKVDNALQSGNSQESVTEQDSKDSTYSLSSTLTLSKADYEKHKVYACEVTHQGLSSPVTKSFNRGEC
B3: afucosylated PI-4928 anti-TREM1 antibody (antibody, mouse IgG2a, kappa, V domains shown)
VH: QVQLKESGPGLVQPSQTLSLTCTVSGFSITSSNVYWFRQPPGKGLEWMGNIWGDGSTDYNSSLKSRLTLSRDTSKNQVFLKINSLQSEDTATYFCTRSWEYYFDHWGQGVVVTVSS
VL: DIVLTQSPALAVSPGQRATLSCRASQSVTLSNVNLMNWYQQKPGQQPKLLIYHASNLASGIPTRFSGSGSGTDFTLTIDPVQADDIAAYYCQQSGESPRTFGGGTKVELKR
modifications: afucosylated
notes: Anti-mouse TREM1 surrogate, mIgG2a

What was measured:
[1] = biological target: T1, cynomolgus TREM1 on cells; assay: flow cytometry on HEK293 cells over-expressing cynomolgus TREM1; cells overexpressing cynomolgus TREM1; EC50 about 12-fold weaker than parent (4.61 nM); background binding Y
[2] = biological target: T2, Chimeric cynomolgus TREM1-mIgG Fc; assay: SPR (Biacore T200), avid format: cynomolgus TREM1-mIgG Fc captured, antibody as analyte
Method: All data were collected at 25° C. 10 mM HEPES pH 7.4, 150 mM NaCl, 3 mM EDTA, 0.05% (v/V) surfactant P20 was used as mobile buffer and for all dilution of mAbs. Anti-mouse Fc was immobilized on a CM4 biosensor chip (GE Healthcare) using amine coupling chemistry. Chimeric cynomolgus TREM1-mIgG Fc was captured on one flow cell and another flow cell (used as reference surface) was left blank. […] After each cycle, the surface was regenerated by injecting a glycine HCl buffer (10 mM, pH 2.0). BIAevaluation software was used to perform the kinetic evaluation. Kinetic evaluation was through generation of sensorgrams which were fitted with a 1:1 Langmuir binding model.

[3] = biological target: hCD16 on NFAT-luciferase reporter Jurkat cells (Promega) (human, UniProt P08637 17-254); assay: cell-based or functional assay
Chain of hCD16 on NFAT-luciferase reporter Jurkat cells (Promega) (P08637 17-254 F176V): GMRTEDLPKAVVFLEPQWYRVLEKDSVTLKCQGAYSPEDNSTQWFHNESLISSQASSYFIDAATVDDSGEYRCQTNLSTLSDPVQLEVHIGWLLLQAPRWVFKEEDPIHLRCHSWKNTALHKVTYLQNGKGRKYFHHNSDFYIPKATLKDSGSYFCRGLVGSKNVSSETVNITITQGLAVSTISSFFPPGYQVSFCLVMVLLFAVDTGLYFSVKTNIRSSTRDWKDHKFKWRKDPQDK

[4] = biological target: T1, cynomolgus TREM1 on cells; assay: flow cytometry on HEK293 cells over-expressing cynomolgus TREM1; cells overexpressing cynomolgus TREM1; EC50 about 6-fold weaker than parent (4.61 nM)
[5] = biological target: T3, Fc-tagged recombinant mouse TREM1 (R&D …); assay: MSD ligand binding PK assay, plate coated with Fc-tagged recombinant mouse TREM1
Method: A 96-well high-binding MSD plate was coated with Fc-tagged recombinant mouse TREM1 (R&D systems #1187-TR). After blocking, samples were added to the plate which bound the TREM1 protein. […] ECL signal was produced by the secondary antibody after the plate received an electric signal from an MSD plate reader. The ECL signal was detected and quantified by the plate reader.

| Binder | EC50 [1] [nM] | Kd [2] [nM] | hCD16 ADCC assay EC50 [3] [nM] | EC50 [4] [nM] | binding result [5] |
| --- | --- | --- | --- | --- | --- |
| B1 | 58 | 6.19 | 3.18 |  |  |
| B2 |  | 11.8 | 6.92 | 28.6 |  |
| B3 |  |  |  |  | binds |
